Substrate: CN1/C(=C/c2cc[n+](CCCCCC(=O)NCCOCCOCCOCCNCc3c[nH]c4nc(N)[nH]c(=O)c34)c3ccccc23)Sc2ccccc21
Test: Estimation of PreQ1-TO substrate kinetics with ECY-A1 catalyzed by TGT
Assay type: biochemical, E. coli
Details: other: estimated from initial rates by fluorescence, 10 μM ECY-A1, 100 nM TGT, 37° C.
Procedure: Estimation of PreQ1-TO substrate kinetics with ECY-A1. An estimation of PreQ1-TO substrate kinetics with ECY-A 1 was performed under similar concentrations and conditions to that found from previous kinetic analyses using radiolabeled substrates.^2 A triplicate set of 20 μL reactions was analyzed using a Tecan Saphire-II plate reader in a Greiner 384 well flat bottom plate (VWR, CAT# 89089−584). Each well was prepped with 10 μM ECY-A 1 and a variable amount (from 100 μM to 10 nM in serial ⅓ dilutions) of PreQ1-TO in TGT reaction buffer. The plate was covered and allowed to warm up to 37° C. for 10 minutes. […] Each well was then covered with 10 μL of light mineral oil (to prevent evaporation of water) and the plate was immediately subjected to a fluorescence reading for the first kinetic time point at 37° C. Each well was monitored with an excitation of 501 nm and emission of 531. […] The gain was held fixed and the integration time set to 1 second with 10 reads averaged to each data point collected. The sample was monitored for 30 minutes at 37° C. with a reading taken every 2 minutes. The data was worked up using an ECY-A1-PreQ1-TO calibration curve to convert fluorescence into concentration of product in each sample for each time point to achieve an estimation of the initial rate of each reaction in M^−1/s^−1. […] This curve was analyzed with Graph Pad Prism v. […]

B1: bacterial (E.coli) tRNA guanine transglycosylase (TGT) (Escherichia coli K-12) (protein)
chain: MKFELDTTDGRARRGRLVFDRGVVETPCFMPVGTYGTVKGMTPEEVEATGAQIILGNTFHLWLRPGQEIMKLHGDLHDFMQWKGPILTDSGGFQVFSLGDIRKITEQGVHFRNPINGDPIFLDPEKSMEIQYDLGSDIVMIFDECTPYPADWDYAKRSMEMSLRWAKRSRERFDSLGNKNALFGIIQGSVYEDLRDISVKGLVDIGFDGYAVGGLAVGEPKADMHRILEHVCPQIPADKPRYLMGVGKPEDLVEGVRRGIDMFDCVMPTRNARNGHLFVTDGVVKIRNAKYKSDTGPLDPECDCYTCRNYSRAYLHHLDRCNEILGARLNTIHNLRYYQRLMAGLRKAIEEGKLESFVTDFYQRQGREVPPLNVDHHHHHH
notes: His6 (C); made in house; host or cells: E. coli BL21
- Km: 9.8 µM
- kcat: 0.0016 s⁻¹
